Measured values reported in patent US20240226308A1, “DOSING REGIMENS OF PEPTIDE CONJUGATES OF TOPOISOMERASE I INHIBITORS” (CYBREXA 2, INC., priority 2021, published 2024).
“Also recorded” adds a separate entry of the source. Where two headings read alike, the source gives them in different places.

Assays:
[1] = Phase 1/2 study of Compound 1: safety and tolerability (adverse events, NCI CTCAE v5.0); assay type: in vivo, human
Description: (§1) This is a first-in-human, Phase 1/2 open-label, multicenter, dose-escalation, safety, pharmacokinetics (PK), and biomarker study of Compound 1 in subjects with advanced or metastatic refractory solid tumors.
• To determine the safety and tolerability, maximum tolerated doses (MTDs) and dose limiting toxicities (DLTs) of Compound 1 in subjects with advanced or metastatic refractory solid tumors when administered on the following schedules: • Daily×5 every 3 weeks (Part A) • Daily×3 every 3 weeks (Part B) • To establish the Recommended Phase 2 Dose (RP2D) of Compound 1 for each schedule
(§2) The subject will receive treatment with Compound 1 and be monitored for safety and disease status by AE assessment, physical examination, laboratory tests, radiologic assessment, and ECG. PK and biomarker samples will be collected. All AEs and serious adverse events (SAEs) will be assessed using the National Cancer Institute Common Terminology Criteria for Adverse Events (NCI CTCAE) v5.0. Disease assessments by computed tomography (CT) or magnetic resonance imaging (MRI) will be conducted at protocol-specific intervals. Subjects may continue treatment as long as they are tolerating treatment without disease progression based on RECIST 1.1.
DLTs will be assessed for all subjects enrolled in Phase I through their initial 3-week cycle of treatment (Cycle 1, the DLT period). Any AE occurring during the DLT period deemed at least possibly related to Compound 1 and meeting the criteria below will be designated a DLT. […] This will, however, be considered in the SRC's subsequent dose-level recommendations.
(§3) Compound 1 was administered as a 1-hour IV infusion. As set forth above, the first patient on study was treated with a starting dose of 0.25 mg/kg, which was dosed daily five times a week every 3 weeks (Schedule A). Initially. an accelerated dose tritation was utilized, wherein single patient cohorts were accrued and the dose was escalated up to 100% for each new cohort until the occurrence of Grade 2 or greater treatment-related adverse events (TRAEs). A single patient was accrued to Cohort A1 (0.25 mg/kg). The dose was doubled to 0.5 mg/kg for Cohort A2, and 3 patients were accrued to this cohort due to the occurrence of greater than Grade 2 level adverse events.
Schedule B: once daily three times per week every three weeks, on a mg/m^2 basis (in other words, the dosage was calculated based on the patient's body surface area)
Schedule C: once weekly on a mg/m^2 basis. Patients treated on this schedule received a sentinel dose on Day -14 followed by 2 weeks of no treatment to evaluate the full PK profile of Compound 1 and exatecan. Once weekly dosing started Cycle 1 Day 1.

[2] = Phase 1/2 study of Compound 1: pharmacokinetics; assay type: in vivo, human; details: for half-life: in vivo
Description: as §1
• To determine the pharmacokinetics (PK) of Compound 1 • To evaluate the preliminary anti-tumor activity of Compound 1 based on Response Evaluation Criteria in Solid Tumors (RECIST) 1.1 as follows: • Objective response rate (ORR) • Duration of response (DoR) • Progression-free survival (PFS)
as §2, §3

[3] = Subject 1-5, Ovarian, prior TOP1 inhibitor Yes, Cohort B1 20 mg/m^2, Schedule B: Daily x 3 Every 3 Weeks
[4] = Subject 1-8, Pancreas, prior TOP1 inhibitor Yes, Cohort C1 20 mg/m^2, Schedule C: Once Weekly
[5] = Subject 1-9, Colorectal, prior TOP1 inhibitor Yes, Cohort B3 45 mg/m^2, Schedule B: Daily x 3 Every 3 Weeks
[6] = Subject 2-4, Appendiceal, prior TOP1 inhibitor Yes, Cohort B2 30 mg/m^2, Schedule B: Daily x 3 Every 3 Weeks
[7] = Subject 2-6, Breast, prior TOP1 inhibitor No, Cohort B2 30 mg/m^2, Schedule B: Daily x 3 Every 3 Weeks
[8] = Subject 2-12, Breast, prior TOP1 inhibitor No, Cohort B4 60 mg/m^2, Schedule B: Daily x 3 Every 3 Weeks
[9] = Subject 3-1, Colorectal, prior TOP1 inhibitor Yes, Cohort B3 45 mg/m^2, Schedule B: Daily x 3 Every 3 Weeks
[10] = Subject 5-2, Colorectal, prior TOP1 inhibitor Yes, Cohort B4 60 mg/m^2, Schedule B: Daily x 3 Every 3 Weeks

With `CC[C@@]1(O)C(=O)OCc2c1cc1n(c2=O)Cc2c-1nc1cc(F)c(C)c3c1c2[C@@H](NC(=O)O[C@H]1CCCC[C@@H]1SSC[C@H](NC(=O)[C@H](Cc1c[nH]c2ccccc12)NC(=O)[C@H](CC(C)C)NC(=O)[C@H](CC(C)C)NC(=O)[C@H](CC(=O)O)NC(=O)[C@H](CC(C)C)NC(=O)[C@H](CC(C)C)NC(=O)[C@H](CC(C)C)NC(=O)[C@@H](NC(=O)[C@H](CC(=O)O)NC(=O)[C@@H](NC(=O)[C@@H]1CCCN1C(=O)[C@H](Cc1ccccc1)NC(=O)[C@H](CC(C)C)NC(=O)[C@H](CC(C)C)NC(=O)[C@H](CC(=O)O)NC(=O)[C@H](CC(C)C)NC(=O)[C@H](Cc1ccc(O)cc1)NC(=O)[C@H](C)NC(=O)[C@H](CCCNC(=N)N)NC(=O)[C@H](Cc1c[nH]c2ccccc12)NC(=O)[C@@H]1CCCN1C(=O)[C@H](CC(N)=O)NC(=O)[C@H](CCC(N)=O)NC(=O)[C@H](CC(=O)O)NC(=O)[C@H](CC(=O)O)NC(=O)[C@H](C)N)[C@@H](C)O)[C@@H](C)O)C(=O)NCC(=O)O)CC3` [Compound 1] the “adverse events, Grade level” value ([1]; Cohort A2, 0.5 mg/kg, Schedule A, 3 patients) was > 2, the “Treatment-Related Adverse Events, Gr 1” value [1, 3] was “Gr 1: Fatigue” and the “Treatment-Related Adverse Events, Gr 2” value [1, 3] was “Dehydration”. For the same compound, the “Treatment-Related Adverse Events” value ([1]; Subject 1-6, Testicular, prior TOP1 inhibitor No, Cohort B1 20 mg/m^2, Schedule B: Daily x 3 Every 3 Weeks) was “No TRAEs”, the “Treatment-Related Adverse Events, Gr 2” value ([1]; Subject 1-7, Esophageal/GEJ (baseline Hgb 9.4), Cohort B1 20 mg/m^2, Schedule B: Daily x 3 Every 3 Weeks) was “Gr 2: Anemia” and the “Treatment-Related Adverse Events, Gr 1” value ([1]; Subject 1-7, Esophageal/GEJ, prior TOP1 inhibitor No, Cohort B1 20 mg/m^2, Schedule B: Daily x 3 Every 3 Weeks) was “Gr 1: Fatigue,”. For the same compound, the “Treatment-Related Adverse Events, Gr 1” value [1, 4] was “Gr 1: Vomiting”, the “Treatment-Related Adverse Events, Gr 2” value [1, 4] was “Gr 2: Nausea” and the “Treatment-Related Adverse Events, Gr 1” value [1, 5] was “Gr 1: Vomiting,; also recorded: diarrhea”. The “Treatment-Related Adverse Events, Gr 2” value [1, 5] was “Gr 2: Nausea”, the “Treatment-Related Adverse Events, Gr 3” value ([1]; Subject 1-9, Colorectal, AST/ALT elevation resolved to Gr 1 in 2-3 days, Cohort B3 45 mg/m^2, Schedule B: Daily x 3 Every 3 Weeks) was “anemia” and the “Treatment-Related Adverse Events” value ([1]; Subject 2-1, Pancreas, prior TOP1 inhibitor Yes, Cohort C1 20 mg/m^2, Schedule C: Once Weekly) was “No TRAES”. For the same compound, the “Treatment-Related Adverse Events” value ([1]; Subject 2-2, Colon, prior TOP1 inhibitor Yes, Cohort C1 20 mg/m^2, Schedule C: Once Weekly, off treatment after PK period) was “No TRAEs”, the “Treatment-Related Adverse Events, Gr 2” value ([1]; Subject 2-3, Ovarian, prior TOP1 inhibitor No, Cohort C1 20 mg/m^2, Schedule C: Once Weekly) was “Gr 2: Fatigue” and the “Treatment-Related Adverse Events, Gr 1” value [1, 6] was “Gr 1: Anemia”. For the same compound, the “Treatment-Related Adverse Events, Gr 2” value [1, 6] was “Gr 2: Nausea,; also recorded: vomiting”, the “Treatment-Related Adverse Events, Gr 3” value ([1]; Subject 2-5, Breast, prior TOP1 inhibitor Yes (C4D11), Cohort B2 30 mg/m^2, Schedule B: Daily x 3 Every 3 Weeks) was “Neutropenia” and the “Treatment-Related Adverse Events, Gr 1” value [1, 7] was “Gr 1: Fatigue,; also recorded: nausea”. For the same compound, the “Treatment-Related Adverse Events, Gr 2” value [1, 7] was “Neutropenia,; also recorded: WBC decrease”, the “Treatment-Related Adverse Events” value ([1]; Subject 2-8, Osteosarcoma, prior TOP1 inhibitor Unknown, Cohort B3 45 mg/m^2, Schedule B: Daily x 3 Every 3 Weeks, removed from study on C1D2) was “No TRAEs” and the “Treatment-Related Adverse Events” value ([1]; Subject 2-9, Breast, prior TOP1 inhibitor No, Cohort C1 20 mg/m^2, Schedule C: Once Weekly) was “No TRAEs”. For the same compound, the “Treatment-Related Adverse Events, Gr 2” value ([1]; Subject 2-11, Ovarian (C1D1 Hgb = 10.3), Cohort B3 45 mg/m^2, Schedule B: Daily x 3 Every 3 Weeks) was “Gr 2: Anemia”, the “Treatment-Related Adverse Events, Gr 3” value ([1]; Subject 2-11, Ovarian (resolved in 2 days), Cohort B3 45 mg/m^2, Schedule B: Daily x 3 Every 3 Weeks) was “Neutropenia” and the “Treatment-Related Adverse Events, Gr 1” value ([1]; Subject 2-11, Ovarian, prior TOP1 inhibitor No, Cohort B3 45 mg/m^2, Schedule B: Daily x 3 Every 3 Weeks) was “Gr 1: Nausea,; also recorded: lipase increase,; also recorded: alopecia”. The “Treatment-Related Adverse Events, Gr 1” value [1, 8] was “Gr 1: Vomiting”, the “Treatment-Related Adverse Events, Gr 2” value [1, 8] was “Gr 2: Colitis” and the “Treatment-Related Adverse Events, Gr 4” value [1, 8] was “Neutropenia,; also recorded: thrombocytopenia”. For the same compound, the “Treatment-Related Adverse Events, Gr 1” value [1, 9] was “Gr 1: Headache”, the “Treatment-Related Adverse Events, Gr 2” value [1, 9] was “Gr 2: Nausea,; also recorded: WBC decrease,; also recorded: ANC decrease,; also recorded: diarrhea” and the “Treatment-Related Adverse Events, Gr 2” value [1, 10] was “Gr2: Vomiting,; also recorded: dehydration”. The “Treatment-Related Adverse Events, Gr 3” value [1, 10] was “anemia”, the “Treatment-Related Adverse Events, Gr 4” value [1, 10] was “Neutropenia,; also recorded: thrombocytopenia” and the accumulation ([2]; five consecutive days of dosing, Schedule A) was “significant accumulation”. The half-life ([2]; human, initial four patients, Schedule A (daily five times a week every 3 weeks), 0.25-0.5 mg/kg, 1-hour IV infusion, read-out: half-life of Compound 1 (converted)) was ~20 h and the half-life ([2]; prediction made before the study, read-out: predicted half-life (converted)) was ~8 h.
